± gives the uncertainty stated by the source.
B1: Intersectin-1, residues 909 to 971; numbered along this chain, Q15811 (parent)
chain: QGEKVEGLQAQALYPWRAKKDNHLNFNKNDVITVLEQQDMWWFGEVQGQKGWFPKSYVKLISG

Variants of: B1
Test: abundance fitness (aPCA) (normalised: wild type 0, dead -1); higher = more abundant; growth selection in yeast, the domain comes from the species named
Details: Homo sapiens

| Variant | abundance fitness |
| --- | --- |
| QGEKVEGLQAQALYPWRAKKDNHLNFNKNDVITVLEQQDMKWFGEVQGQKGWFPKSYVKLISG [W41K] | -0.427 ± 0.31 |
| QGEKVEGLQAQALYPWRAKKDNHLNFNKNDVITVLEQQDMMWFGEVQGQKGWFPKSYVKLISG [W41M] | -0.071 ± 0.085 |
| QGEKVEGLQAQALYPWRAKKDNHLNFNKNDVITVLEQQDMRWFGEVQGQKGWFPKSYVKLISG [W41R] | -0.6 ± 0.092 |
| QGEKVEGLQAQALYPWRAKKDNHLNFNKNDVITVLEQQDMLWFGEVQGQKGWFPKSYVKLISG [W41L] | -0.252 ± 0.089 |
| QGEKVEGLQAQALYPWRAKKDNHLNFNKNDVITVLEQQDMPWFGEVQGQKGWFPKSYVKLISG [W41P] | -0.94 ± 0.2 |
| QGEKVEGLQAQALYPWRAKKDNHLNFNKNDVITVLEQQDMTWFGEVQGQKGWFPKSYVKLISG [W41T] | -0.659 ± 0.23 |
| QGEKVEGLQAQALYPWRAKKDNHLNFNKNDVITVLEQQDMSWFGEVQGQKGWFPKSYVKLISG [W41S] | -0.274 ± 0.085 |
| QGEKVEGLQAQALYPWRAKKDNHLNFNKNDVITVLEQQDMFWFGEVQGQKGWFPKSYVKLISG [W41F] | -0.238 ± 0.18 |
| QGEKVEGLQAQALYPWRAKKDNHLNFNKNDVITVLEQQDMEWFGEVQGQKGWFPKSYVKLISG [W41E] | -0.59 ± 0.17 |
| QGEKVEGLQAQALYPWRAKKDNHLNFNKNDVITVLEQQDMQWFGEVQGQKGWFPKSYVKLISG [W41Q] | -0.316 ± 0.15 |
| QGEKVEGLQAQALYPWRAKKDNHLNFNKNDVITVLEQQDMYWFGEVQGQKGWFPKSYVKLISG [W41Y] | -0.053 ± 0.18 |
| QGEKVEGLQAQALYPWRAKKDNHLNFNKNDVITVLEQQDMHWFGEVQGQKGWFPKSYVKLISG [W41H] | -0.36 ± 0.2 |
| QGEKVEGLQAQALYPWRAKKDNHLNFNKNDVITVLEQQDMWWFGDVQGQKGWFPKSYVKLISG [E45D] | -0.223 ± 0.26 |
| QGEKVEGLQAQALYPWRAKKDNHLNFNKNDVITVLEQQDMWWFGCVQGQKGWFPKSYVKLISG [E45C] | -0.117 ± 0.3 |
| QGEKVEGLQAQALYPWRAKKDNHLNFNKNDVITVLEQQDMWWFGAVQGQKGWFPKSYVKLISG [E45A] | -0.245 ± 0.12 |
| QGEKVEGLQAQALYPWRAKKDNHLNFNKNDVITVLEQQDQWWFGEVQGQKGWFPKSYVKLISG [M40Q] | 0.052 ± 0.34 |
| QGEKVEGLQAQALYPWRAKKDNHLNFNKNDVITVLEQQDYWWFGEVQGQKGWFPKSYVKLISG [M40Y] | -0.344 ± 0.26 |
| QGEKVEGLQAQALYPWRAKKDNHLNFNKNDVITVLEQQDAWWFGEVQGQKGWFPKSYVKLISG [M40A] | -0.083 ± 0.09 |
| QGEKVEGLQAQALYPWRAKKDNHLNFNKNDVITVLEQQDKWWFGEVQGQKGWFPKSYVKLISG [M40K] | 0.144 ± 0.22 |
| QGEKVEGLQAQALYPWRAKKDNHLNFNKNDVITVLEQQDSWWFGEVQGQKGWFPKSYVKLISG [M40S] | 0.013 ± 0.12 |
| QGEKVEGLQAQALYPWRAKKDNHLNFNKNDVITVLEQQDPWWFGEVQGQKGWFPKSYVKLISG [M40P] | 0.025 ± 0.11 |
| QGEKVEGLQAQALYPWRAKKDNHLNFNKNDVITVLEQQDLWWFGEVQGQKGWFPKSYVKLISG [M40L] | 0.008 ± 0.094 |

| Variant | abundance fitness |
| --- | --- |
| QGEKVEGLQAQALYPWRAKKDNHLNFNKNDVITVLEQQDVWWFGEVQGQKGWFPKSYVKLISG [M40V] | -0.164 ± 0.1 |
| QGEKVEGLQAQALYPWRAKKDNHLNFNKNDVITVLEQQDIWWFGEVQGQKGWFPKSYVKLISG [M40I] | 0.034 ± 0.17 |
| QGEKVEGLQAQALYPWRAKKDNHLNFNKNDVITVLEQQDRWWFGEVQGQKGWFPKSYVKLISG [M40R] | -0.127 ± 0.1 |
| QGEKVEGLQAQALYPWRAKKDNHLNFNKNDVITVLEQQDCWWFGEVQGQKGWFPKSYVKLISG [M40C] | 0.084 ± 0.17 |
| QGEKVEGLQAQALYPWRAKKDNHLNFNKNDVITVLEQQDWWWFGEVQGQKGWFPKSYVKLISG [M40W] | -0.475 ± 0.22 |
| QGEKVEGLQAQALYPWRAKKDNHLNFNKNDVITVLEQQDFWWFGEVQGQKGWFPKSYVKLISG [M40F] | -0.233 ± 0.38 |
| QGEKVEGLQAQALYPWRAKKDNHLNFNKNDVITVLEQQDNWWFGEVQGQKGWFPKSYVKLISG [M40N] | 0.121 ± 0.17 |
| QGEKVEGLQAQALYPWRAKKDNHLNFNKNDVITVLEQQDGWWFGEVQGQKGWFPKSYVKLISG [M40G] | -0.109 ± 0.11 |
| QGEKVEGLQAQALYPWRAKKDNHLNFNKNDVITVLEQQDTWWFGEVQGQKGWFPKSYVKLISG [M40T] | -0.115 ± 0.13 |
| QGEKVEGLQAQALYPWRAKKDNHLNFNKNDVITVLEQQTMWWFGEVQGQKGWFPKSYVKLISG [D39T] | -0.009 ± 0.2 |
| QGEKVEGLQAQALYPWRAKKDNHLNFNKNDVITVLEQQYMWWFGEVQGQKGWFPKSYVKLISG [D39Y] | -0.208 ± 0.27 |
| QGEKVEGLQAQALYPWRAKKDNHLNFNKNDVITVLEQQWMWWFGEVQGQKGWFPKSYVKLISG [D39W] | -0.588 ± 0.16 |
| QGEKVEGLQAQALYPWRAKKDNHLNFNKNDVITVLEQQVMWWFGEVQGQKGWFPKSYVKLISG [D39V] | -0.304 ± 0.14 |
| QGEKVEGLQAQALYPWRAKKDNHLNFNKNDVITVLEQQSMWWFGEVQGQKGWFPKSYVKLISG [D39S] | -0.127 ± 0.18 |
| QGEKVEGLQAQALYPWRAKKDNHLNFNKNDVITVLEQQDMWWFDEVQGQKGWFPKSYVKLISG [G44D] | -0.999 ± 0.4 |
| QGEKVEGLQAQALYPWRAKKDNHLNFNKNDVITVLEQQDMWWFCEVQGQKGWFPKSYVKLISG [G44C] | -0.79 ± 0.46 |
| QGEKVEGLQAQALYPWRAKKDNHLNFNKNDVITVLEQQDMWWFVEVQGQKGWFPKSYVKLISG [G44V] | -1.1 ± 0.41 |
| QGEKVEGLQAQALYPWRAKKDNHLNFNKNDVITVLEQQDMWWFAEVQGQKGWFPKSYVKLISG [G44A] | -1.03 ± 0.34 |
| QGEKVEGLQAQALYPWRAKKDNHLNFNKNDVITVLEQQDMWWFTEVQGQKGWFPKSYVKLISG [G44T] | -0.604 ± 0.28 |
| QGEKVEGLQAQALYPWRAKKDNHLNFNKNDVITVLEQQDMWWFWEVQGQKGWFPKSYVKLISG [G44W] | -1 ± 0.27 |
| QGEKVEGLQAQALYPWRAKKDNHLNFNKNDVITVLEQQDMWWFPEVQGQKGWFPKSYVKLISG [G44P] | -1.11 ± 0.41 |

— the Human Domainome abundance scans (Beltran et al. 2025)
